In patent US20110256153A1 (IMMUNOGEN, published 2011) one finds binding result and Kd data, which are given here for three molecules.

The target in assay [1] is T1, hCD37-M45 (human/murine chimera, UniProt P11049 1-281).
T1 construct: stably expressed on 300-19 cells; also called hCD37-M45 variant
T1 chain: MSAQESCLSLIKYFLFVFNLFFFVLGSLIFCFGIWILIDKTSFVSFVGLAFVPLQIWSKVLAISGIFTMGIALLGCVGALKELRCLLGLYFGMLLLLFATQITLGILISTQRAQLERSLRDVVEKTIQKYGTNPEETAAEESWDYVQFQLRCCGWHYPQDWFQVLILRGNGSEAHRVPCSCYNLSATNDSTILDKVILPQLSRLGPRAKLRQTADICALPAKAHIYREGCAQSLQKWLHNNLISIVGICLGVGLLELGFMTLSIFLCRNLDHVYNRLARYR
As to the kind of experiment: flow cytometry, 300-19 cells expressing hCD37-M45, 1.5 µg/mL antibody. The protocol:
(§1) Binding specificity was tested by flow cytometry using purified antibodies. […] All murine antibodies were incubated for 3 h with either CD37-expressing 300-19 cells or the non-transfected 300-19 cells (1×10⁵ cells per sample) in 100 μL FACS buffer (RPMI-1640 medium supplemented with 2% normal goat serum). Then, the cells were pelleted, washed, and incubated for 1 h with 100 μL of FITC-conjugated goat anti-mouse IgG-antibody (Jackson Laboratory, 6 μg/mL in FACS buffer). The cells were pelleted again, washed with FACS buffer and resuspended in 200 μL of PBS containing 1% formaldehyde. Samples were acquired using a FACSCalibur flow cytometer with the HTS multiwell sampler or a FACS array flow cytometer and analyzed using CellQuest Pro (all from BD Biosciences, San Diego, US).
Binding of various CD37 antibodies to cells expressing human CD37 wildtype and variants was analyzed by flow cytometry using 1.5 μg/mL of each antibody. The isolated antibodies of this invention were compared to commercially available CD37 antibody WR17, as well as the TRU-016 SMIP. […] Likewise, all antibodies tested bound the hCD37-M3 variant (FIG. 18B). In contrast, the isolated antibodies of this invention bound the hCD37-M1 variant, while TRU-016 and WR17 were unable to bind hCD37-M1 variant (FIG. 19A). The CD37-50 and CD37-51 antibodies and TRU-016 were also able to bind the hCD37-M45 variant. […]

Another assay addresses T2, hCD37-M3 (human/murine chimera, UniProt P11049 1-281).
T2 construct: stably expressed on 300-19 cells; also called hCD37-M3 variant
T2 chain: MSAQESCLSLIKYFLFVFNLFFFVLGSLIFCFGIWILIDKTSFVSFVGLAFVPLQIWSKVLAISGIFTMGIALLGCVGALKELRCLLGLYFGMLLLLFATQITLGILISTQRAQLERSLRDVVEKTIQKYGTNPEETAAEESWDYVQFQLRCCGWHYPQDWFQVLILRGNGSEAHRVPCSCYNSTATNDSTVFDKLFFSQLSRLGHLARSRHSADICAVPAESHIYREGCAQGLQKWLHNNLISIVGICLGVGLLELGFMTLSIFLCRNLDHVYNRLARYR
As to the kind of experiment: flow cytometry, 300-19 cells expressing hCD37-M3, 1.5 µg/mL antibody. On the procedure: as §1
(§2) Binding of various CD37 antibodies to cells expressing human CD37 wildtype and variants was analyzed by flow cytometry using 1.5 μg/mL of each antibody. The isolated antibodies of this invention were compared to commercially available CD37 antibody WR17, as well as the TRU-016 SMIP. […] Likewise, all antibodies tested bound the hCD37-M3 variant (FIG. 18B). In contrast, the isolated antibodies of this invention bound the hCD37-M1 variant, while TRU-016 and WR17 were unable to bind hCD37-M1 variant (FIG. 19A). The CD37-50 and CD37-51 antibodies and TRU-016 were also able to bind the hCD37-M45 variant. […] In contrast, the CD37-3, CD37-12, CD37-38, CD37-56 and CD37-57 antibodies require at least one of the AA residues in the hCD37-M45 variant that were changed to the corresponding murine AA residues for binding to the CD37 antigen.
(In general: A flow cytometer gives signals particle by particle.)

Assay [2] concerns the target T3, human CD37 (human, UniProt P11049 1-278).
T3 construct: Tetraspanin antigen; Expressed on 300-19 cells transfected with pSRa-CD37 (entire CDS) or endogenous on WSU-DLCL-2, BJAB and Ramos lymphoma cells; also called CD37 antigen; human CD37 wildtype
T3 sequence: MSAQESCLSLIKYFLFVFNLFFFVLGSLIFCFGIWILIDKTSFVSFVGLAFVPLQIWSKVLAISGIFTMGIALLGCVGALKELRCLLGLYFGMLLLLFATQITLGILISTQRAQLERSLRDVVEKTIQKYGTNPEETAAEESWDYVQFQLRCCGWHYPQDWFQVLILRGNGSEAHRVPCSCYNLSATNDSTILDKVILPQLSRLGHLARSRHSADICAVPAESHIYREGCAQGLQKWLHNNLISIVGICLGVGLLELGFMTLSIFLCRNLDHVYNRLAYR
As to the kind of experiment: flow cytometry titration on BJAB cells; apparent Kd. The gist of the method:
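BJAB cells were incubated 3 h with titrated antibody in RPMI-1640 containing 2% goat serum, then 1 h with FITC anti-mouse or anti-human IgG, fixed in 1% formaldehyde and read by flow cytometry. Apparent Kd was derived by non-linear regression of the dose-response curves.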

In the next assay the target is T4, hCD37-M1 (human/murine chimera, UniProt P11049 1-281).
T4 construct: stably expressed on 300-19 cells; also called hCD37-M1 variant
T4 chain: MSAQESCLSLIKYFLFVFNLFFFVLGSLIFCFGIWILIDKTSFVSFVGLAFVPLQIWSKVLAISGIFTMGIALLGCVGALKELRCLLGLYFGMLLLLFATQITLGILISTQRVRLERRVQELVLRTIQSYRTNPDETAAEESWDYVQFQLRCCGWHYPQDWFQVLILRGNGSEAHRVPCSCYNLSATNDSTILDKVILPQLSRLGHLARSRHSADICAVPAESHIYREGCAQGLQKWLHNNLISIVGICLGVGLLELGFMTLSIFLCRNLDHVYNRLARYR
As to the kind of experiment: flow cytometry, 300-19 cells expressing hCD37-M1, 1.5 µg/mL antibody. On the procedure:
as §1, §2

For the next assay, the target named is T5, macaque CD37 (macaque, UniProt P11049 1-277 (human entry)).
T5 construct: Expressed on 300-19 cells transfected with pSRa-CD37mac (300-19/CD37mac cells); also called macaca CD37; macaque derived CD37 antigen
T5 chain: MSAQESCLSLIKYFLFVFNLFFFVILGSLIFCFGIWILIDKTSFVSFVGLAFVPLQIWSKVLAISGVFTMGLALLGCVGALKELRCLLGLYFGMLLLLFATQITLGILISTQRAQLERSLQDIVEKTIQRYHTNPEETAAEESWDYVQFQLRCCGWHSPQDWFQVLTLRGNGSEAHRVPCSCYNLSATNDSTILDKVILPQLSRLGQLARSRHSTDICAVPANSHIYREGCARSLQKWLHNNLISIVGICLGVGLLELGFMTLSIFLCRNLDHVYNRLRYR
As to the kind of experiment: flow cytometry, 300-19/CD37mac cells. On the procedure:
as §1
The murine antibodies muCD37-3, muCD37-12, muCD37-38, […], muCD37-51, muCD37-56 and muCD37-57 were assayed for their ability to bind to 300-19/CD37mac cells expressing macaque CD37. Flow cytometry binding assays were carried out using secondary FITC-conjugated goat-anti-murine or goat-anti-human antibodies, analyzed as described in Example 2. Binding was compared to the previously described anti-CD37 antibody WR17 and the anti-CD37 SMIP TRU-016. […] In contrast, muCD37-3, muCD37-12, the previously described anti-CD37 antibody WR17 and the anti-CD37 SMIP TRU-016 are unable to bind the macaque derived CD37 antigen.

Assay [3] has as its target T1, hCD37-M45. The assay can be described thus: flow cytometry, 300-19 cells expressing hCD37-M45. The protocol:
as §1, §2

Assay [4] has as its target T3, human CD37. As to the kind of experiment: flow cytometry titration on Ramos cells; apparent Kd. The protocol: as §1
The chimeric antibodies chCD37-3 and chCD37-12 were assayed for their binding affinity to Ramos cells in comparison to their murine counterparts. Flow cytometry binding assays using Ramos cells and muCD37-3, chCD37-3, muCD37-12 and chCD37-12 antibodies were carried out and analyzed as described in Example 2 using secondary FITC-conjugated goat-anti-murine and -anti-human antibodies. FIG. 9A depicts the dose-response curves generated by non-linear regression for each antibody. The value for the apparent dissociation constant (Kd) of each antibody was calculated using GraphPad Prism v4 (GraphPad software, San Diego, Calif.).

Assay [5] concerns the target T3, human CD37. The assay can be described thus: flow cytometry titration on WSU-DLCL-2 cells; EC50 taken as apparent Kd. On the procedure:
as §1
To verify that the antibodies can also bind to endogenously expressed CD37, binding experiments were performed with CD37-positive WSU-DLCL-2 lymphoma cells and the muCD37-3, muCD37-12, muCD37-8, muCD37-10 or muCD37-14 antibodies. WSU-DLCL-2 cells were incubated with varying concentrations of murine antibodies and processed as described above for flow cytometry analysis. Data analysis was performed using CellQuest Pro (BD Biosciences, San Diego, US) and for each sample the mean fluorescence intensity for FL1 (MFI) was exported and plotted against the antibody concentration in a semi-log plot (FIG. 3). […]

B1: muCD37-50 (antibody, mouse IgG2a, kappa, V domains shown)
VH: DVQLQESGPDLLKPSQSLSLTCTVTGYSITSGFAWHWIRQFPGNKLEWMGYILYSGSTVYSPSLKSRISITRDTSKNHFFLQLNSVTTEDTATYYCARGYYGYGAWFAYWGQGTLVTVSA
VL: QIVLTQSPAIMSASPGEKVTMTCSATSSVTYMHWYQQKSGTSPKRWIYDTSKLPYGVPGRFSGSGSGTSYSLTISSMEAEDAATYYCQQWSDNPPTFGSGTKLEIKR
notes: Murine hybridoma antibody
For B1, the binding result with hCD37-M45 [1], with hCD37-M3 and in the assay with hCD37-M1 was “binds” throughout. The Kd with human CD37 [2] came to 0.6 nM.

B2: muCD37-51 (antibody, mouse IgG2a, kappa, V domains shown)
VH: DVQLQESGPDLLKPSQSLSLTCTVTGYSISSGFAWHWIRQFPGNKLEWMGYIHYSGSTNYSPSLKSRISITRDSSKNQFFLQLNSVTTEDTATYYCARGYYGFGAWFVYWGQGTLVTVSA
VL: QIVLTQSPAIMSASPGEKVTMTCSATSSVTYMHWYQQKSGTSPKRWIYDTSKLASGVPARFSGSGSGTSYSLTISNMEAEDAATYYCQQWSSNPPTFGSGTKLEIKR
notes: Murine hybridoma antibody
As to B2, the binding result with hCD37-M45 [1], with hCD37-M3, with macaque CD37 and with hCD37-M1 was “binds” in each case. In addition, the Kd with human CD37 [2] was 0.6 nM.

B3: muCD37-12 (antibody, mouse IgG2a, kappa)
heavy: QIQLVQSGPELKKPGETVKISCKASGYTFTKYGMNWVKQAQGKGLKWMGWINTNTGESRNAEEFKGRFAFSLETSASTAYLQINNLKYEDTATYFCGRGTVVADWGQGTTLTVSSAKTTAPSVYPLAPVCGDTTGSSVTLGCLVKGYFPEPVTLTWNSGSLSSGVHTFPAVLQSDLYTLSSSVTVTSSTWPSQSITCNVAHPASSTKVDKKIEPRGPTIKPCPPCKCPAPNLLGGPSVFIFPPKIKDVLMISLSPIVTCVVVDVSEDDPDVQISWFVNNVEVHTAQTQTHREDYNSTLRVVSALPIQHQDWMSGKEFKCKVNNKDLPAPIERTISKPKGSVRAPQVYVLPPPEEEMTKKQVTLTCMVTDFMPEDIYVEWTNNGKTELNYKNTEPVLDSDGSYFMYSKLRVEKKNWVERNSYSCSVVHEGLHNHHTTKSFSRTPGK
light: DIVLTQSPASLAVSLGQRATISCRASQSVSTSSYSYLYWFQQKPGQPPKLLIKYASNLASGVPARFSGSGSGTDFTLNIHPVEEEDTATYYCQHSWEIPYTFGGGTKLEIKRADAAPTVSIFPPSSEQLTSGGASVVCFLNNFYPKDINVKWKIDGSERQNGVLNSWTDQDSKDSTYSMSSTLTLTKDEYERHNSYTCEATHKTSTSPIVKSFNRNEC
notes: Murine hybridoma antibody
Turning to B3, the binding result with hCD37-M45 [3] was “no binding (tested: 1.5 µg/mL)”; with hCD37-M3, “binds”; in the assay with macaque CD37 it was “no binding”; with hCD37-M1 it was “binds”. Besides, the Kd turned out to be 0.8 nM with human CD37 [4] and 1.1 nM with human CD37 [5].
